Assay: yeast display, Sf9 membrane polyspecificity reagent, FACS + sequencing; frameworks hold sequencing errors
Procedure, shortened: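 Polyreactivity labels are assigned by the sorting gate from which each nanobody was recovered. The gates were low and high (top ~1%), set on anti-HA fluorescence for expression and streptavidin fluorescence for reagent binding. Before sorting, galactose-induced (36–48 hours) yeast display cells were stained for 1 hour at 4 °C with 10% biotinylated, detergent-solubilized Sf9 membrane reagent.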

Sequence	polyreactivity (PSR sort gate)
PVQLQQSGSGLVQAGGSLRLSCAASGYISLGDNKGWYRQAPGKEREFDATISVGGITYYVDSVKGPFTISRDIAKNTVYLQMNSVKPEDTAVYYCAALDIYYLRYYYWGQGTQVTLSS	low polyreactivity
PVQLVESGGGLGQAGGSLRLSCAASGIIFNDYAMGWYRQAPGKERELVASIRSNTGSTNYADSVKGRFTISRDYAKNTVYLPMNSLKPEETAVSDCAADYLPDYGPRGGYWGQGTQVTVSS	low polyreactivity
PVQLVESGGGLGQAGGSLRLSCAASGLTFGRYAMGWYRQAPGKERELVAAITRSGGRTYYADSVKGRFTISRDNAKNTVYLQMNSLKPEDTAVYYCNTRSHLGAPGDPDDYWGQGTQVTVTS	high polyreactivity
PVQLVESGGGLGQAGGSLRLSCAASGRIFYLYAMGWYRQAPGKERELVATIDSSGDSTFYADSVKGRFTISRDNAKNTVYLQMNSLKPEDTAVYNCAADEVSSYDYGYKGRYDYWGQGTQVTVSS	low polyreactivity
PVQLVESGGGLVQAGGSLRLSCAASGRTFGYNAMGWYRQAPGKERELVASISYRGGSTYYADSVKGRFTISRDNAKNTVYLQMNSLKPEDTAVYYCNKYYVWREYYWGQGTQVNVSS	high polyreactivity
PVQLVESGGGLVQAGGSLRLSCAASGRTFYKYAMGWYRQAPGKERELVAAISKSGGRTYYADSVKGRFTISRDNAKNTVYLQMNSLKPEDTAVYYCAAEPFIPDQSRYYYWGQGTQVTVSS	high polyreactivity
PVQLVESGGGLVQAGGSLRLSCAASGRTVWNTMGWDRQSPGNERELVAAISYSGGTTYYADSVKGRFTISRDNAKNTVYLQMNSLKPEDTAVYYCNAVTYGWTAYYKGKRYDYWGQGTQVTVSS	high polyreactivity
PVQLVESGGGLVQAGGSLRLSCAASGSTFDAYDLGWYRQAPGKERELVAAINWSGGITYYADSVKGRFTISRDNAKNTVYLQMNSLKPEDTAVYYCNADASFYSRVNYWGQGTQVTVSS	high polyreactivity
PVQLVESGGGLVQAGGSLRLSCAASGSTSSYYAMGWYRQAPGKERELVAAIRTSGRTYYADSVKGRFTISRDNAKNTVYLQMNSLQPEDTAVYYCNAGYVSPDYDSWGQGTHVTVSS	high polyreactivity
PVQLVESGGGLVQAGGSLSLTCAASGSIFPYYTMRWYRPAPGKERELVATITGNGGSTYADSGKGRFTISRDNAKNTVYLQMNSLKPEDTAVYYCAVYGDSYWGAYYYSDGYWGQGTQVTVSS	low polyreactivity
PVQLVESRGRLVQAGGSLRLSCAASGSIFGYNAMGWYRQAPGKERELVAAISYSGASTYYSDSVKGRFTISRDNAKNTVYLQLNSLKPEDTAVYYCAAGWKRFSGRNHYYWGLGTQVTVSS	high polyreactivity
PVQLVESWGGLDQAGGSLRLICAPSGSIFSVYAMGWYRQAPGKERELVAAISWSGGSTYYADSVKGRFTISRDNAKNTVYLQLNSLKPEDTAVYYCNAKHLPRHRDYWGQGTQVTVSS	low polyreactivity
QAQLQESGGSLVQAGGGLRLSCAASGYISVGSVMGWYRQAPSKERELGASIDQGANTNYADSVKGRFTISRDNAKNNVYLQMNSLKPEDTAVYYCATETTYILNYWGQGTQVTVSS	low polyreactivity
QAQLQESGGSLVQAGGGLRLSCAASGYISVGSVMGWYRQAPSKERELVASIDQGANTNYADSVNGRFTISRDNAKNKESLQMNSLKPEDTAVYYCATETTYIVIYWGQGTQVTVSS	low polyreactivity
QDHIVESGGGLVQAGGSLRLSCAASGSTFKLYAMGWYRQAPGKERELVAAITRSGTRTYYADSVKGRFTISRDNAKNTVYLQMNILKPEDTAVYYCAADGYRISGYDYWGQGTQVTVSS	high polyreactivity
QDHLVESGGGLDQAGGSLRLSCAASGRILGDYAMGWYRQAPGKEREFVAAIDYNGGSTNYADSVKGRFTISRDNAKNTVYLQMNSLKPEDTAVYYCAAPGFPSRNGFGYWGQGTQVTVSS	low polyreactivity
QDHLVESGGGLVQAGGSLRLSCAASGGIFYGYAMGWYRQAPGKERELVAAISTSDASTYYADSVKGRFTFSRDNAKNTVFVQMNSLKPEATAVYYCATDLPDGYDYWGQGTQVTVSS	low polyreactivity
QDHLVESGGGLVQAGGSLRLSCAASGISFWFNAMGWYRQAPGKEREWVGAITSGVDTNYADSVKGRFTISRDNAKNTVYLQMNSLKPEDTAVNYSAAQGGRLKRGSTTSDYWGQGTQVTVSS	low polyreactivity
QDHLVESGGGLVQAGGSLRLSCSASGRTFGTYAMGWYRQAPGKERELVATISSGGSTYYADSVKGRFTISRDNAKNTGYLQMNSLKPEDTAVYYCADYRYFRPGDYWGQGTQVTVSS	low polyreactivity
QDLLVDSGGGLLQAGGSLRLSCAASGSIFYTNTMGWYRHAPGKERALVAAISYSDSTTYYADSVKGRFTISRDNAKNSVYLQMNSLKPEDTAVYYCAAQQFYTYYQTYDYWGQGTQVTVSS	high polyreactivity
QDQHGDSGGGLVQAGGSLRLSCSASGFTITYNTMGWYRQAPGKERELVATITAGDGSTYYADSVKGRFTISRDNAKNTVYFQMNSLKPEDTAVYYCAADAYYYYAGGHYYWGQGTQVTVSS	low polyreactivity

Sequence	polyreactivity (PSR sort gate)
QDQHVESEVGLVQAGGSLRLSCAASGSTVYPYAKGWYRKAPGKERELDAAISSGGSTYYADSVKGRFTISRDNAKNTVYLQMNSLKPEDTAVYYCAADFYYAYYWGQGSQVTVSS	low polyreactivity
QDQHVESGGCLVQAGGSRRLSCAASGSILGAYTMGCYRQAQGKERELVAAITRRGGSTYYADSVKGRFTISRDNAKNTVYLQMNSLKPEDTAVYYWNAEYGVWYDYLVVPYDYWGQGTQVTVSS	low polyreactivity
QDQHVESGGGLVQAGASLRLSCSASGRIFRRYAMGWYRQAPGKERELVAAISWSGGTTYYADSVKGRFTISRDNAKNTVYLQINSLKPEDTAVYYCAKLYSSVTTTYPYGLPRYDSWGQGTQVTLSS	high polyreactivity
QDQHVESGGGLVQAGGSLRISSAASGSIYFYNAMGWYRQAPGQERELVAAITTRGGSTYYADSVKGRFTISRDNAKNTVYLQMNSLKPEDTAVYYCARSSRGKLDYWGQGTQVTVSS	low polyreactivity
QDQHVESGGGLVQAGGSLRLSCAASGFTIRNYAMGWYRQAPGKVMELVPAISKRGGNTYYADSVKGRFSISRDNAKNNVYLQLNSLKPEDTAVYFCAADYQFSQDVWHFGYCGQGTQVTVSS	high polyreactivity
QDQHVESGGGLVQAGGSLRLSCAASGGTFVPYAMGWYRQAPGKERELVARISKRGGTTYYADSVKGRFTISRDIAKNTVYLQMNSLKPEDTAVYYCAAGLPARGYYWGQGTQVTVSS	high polyreactivity
QDQHVESGGGLVQAGGSLRLSCAASGLIFNNYAMGWYRQAPGKERELVAPISRTGTSTYYADSVKGRFTISRDNAKNTVYLQMNSLKPEDTAVFYCNAVIQLFEWGWDDEYDYWGQGTQVTVSS	low polyreactivity
QDQHVESGGGLVQAGGSLRLSCAASGSIFGYYARGWYRQAPGTETELVAAISKSGTRTYYADSVKGRFTISRDNAKNTVYVQMNSLKPEETAVYYCAARYYSRTTAMDYWGQGTQVTVSS	high polyreactivity
QDQHVESGGGLVQAGGSLRLSCAASGSTFAFYAMGWYRQAPGKERELVAAINYGGTSTYYADSVKGRFTISRDNAKNTVYLQMNSLKPEDTAVYYCAARRPTSPRRYESWGQGTQVTVSS	high polyreactivity
QDQHVESGGGLVQAGGSLRLSCAASGSTLLYYVMGWYRQAPGKERELVAAITGTGGRTYYADSVKGRFTISRDNAKNTVYLQMNSLKPEDTAVYYCAREWRTRIYYYWGQGTQVTVSS	low polyreactivity
QDQHVESGGGLVQAGGSLRLSCAASGTIFCYYAMGWYRQAPGKERGLVASISWNGTSTYYADSVKGRFTISRDNSKNTVYLQMNCLNPEDTAVYYCNVRFNYRGTYDYWGQGTQVTVSS	low polyreactivity
QDQHVESGGGLVQAGGSLRLSCAASGTTFSLYMGWNRQSPGKERKLVAAITYSGGRTYYADSVKGRFTISRDNAKNTVYLQMNSLKPEDTAVYYCGTVFNDLTVYEYWSRFDYWGQGTQVTVSS	low polyreactivity
QDQHVESGGGLVQAGGSLRLSCDASGRTFTRYAMGWYRQAPGKERELVAAISRGGSTYYADSVKRRFTISRDNAKNTVYLQMNSLKPEDTAVYYCAARYGTYTAGNYWGQGTQVTVSS	high polyreactivity
QDQHVESGGGLVQAGGSLRLSFADSGITFDYYAMGWYRQAPGKERELVAAISVSGGDTYYADSVKGRFTISRDNAKNTVYLQMNRLKPQDTSVYYCAAEEVSPRWYDYWGQGTQVTVSS	low polyreactivity
QDQHVESGRGLVQAGGSLRLSCSASGTIFAYVMGWNIQAPRKERQLVAAISRSGGSTYYADSVKGRFTISRDNAKNTVYLQMNSLKPEDTAVFYCAAVGSTVFGTRYYYWGEGTQVTVSS	high polyreactivity
QDQHVESVGGLVQAGGSLRFSCAASGSTFTRYAMGWYRQAPGKERELVAAIDGGGGSTSYADSVKGRFTISRDNAKNTVYLQMNSLKPEDTAVYYCAAPLDTSSSIFDYWGQGTQVTVSS	low polyreactivity
QDQIVESGGGLVQAGGSLRLSCASSGFTFYVYAMGWYRQAPCKERELVAAISWSGGRTYYAESVKGRFTISRDNAKNTVYLQMNSLKPEDTAVYYCAAYRYYPSYDYWGQGTQVTVSS	high polyreactivity
QDQIVYSGGGLVQAGGSLRLSCAASVRTFYRYDLGWYIQAPGKESELVAAISYSGASTYYADSVKGRFTISRDIAKNTVYLQMNSLKPEDTAVYYCAARYHGRDPRQIRYGYWGQGTQVTVSS	high polyreactivity
QDQLEESGGGIVQAGGSLRLSCAASGSTFQYYAMGWYRQAPGKERELFAAISASVDTKFYADSVKGRFTISRDNAKNTVYLQMNSLKPEDTAFYYCATDWPHWRKVYWFDYWGQGTQVTVSS	low polyreactivity
QDQLEESGGGLVQAGASLRLSCAAYGSIFSGYAMGRYRQATGKERELVAAITWRAASTYYADSVKGRFTISRDNAKTTVYLQMNSLKPEDTEVYYCAKEGWPKPAFYYWGLGTQVTVSS	low polyreactivity

— the nanobody polyreactivity screen of Harvey et al. (2022)
